One assay concerns 3T3-L1 cells. Nature of the assay: rAIM uptake into 3T3-L1 cells by staining. It counts as cell-based, mouse. The method, then:
Differentiated 3T3-L1 cells (ins/DEX/IBMX stimulation (+)) and undifferentiated 3T3-L1 cells (ins/DEX/IBMX stimulation (−)) were incubated with rAIM (5 μg/ml) for 3 hr, and stained with AIM, PPARγ2, and DAPI. For staining with PPARγ2, a rabbit anti-PPARγ2 polyclonal antibody (Abcam plc) was used.
In addition, 3T3-L1 adipocytes were treated with rAIM for 3 hr, stained with AIM and endosome (FM 1-43FX (Invitrogen Corporation) was used), AIM and lysosome (Lyso Tracker Red DND-99 (Invitrogen Corporation) was used), and observed under a confocal microscope.

Assay [1] addresses T1, FAS (Mus musculus, UniProt P19096). Description: FAS enzyme activity of treated 3T3-L1 adipocytes. In kind it is cell-based. The settings on record: 3T3-L1 adipocytes, rAIM 5 μg/ml, 6 days. On the set-up: endogenous in cells; host or cells: 3T3-L1 adipocytes (treated cells, then lysed). The method, then: (§1) The influence of AIM on FAS activity of adipocyte or adipose tissue was examined. FAS activity was measured by the method of Kelley (Kelley et al., Biochem. J., 1986, 235:87-90) with slight modification. 3T3-L1 adipocytes, or lysates of adipose tissue of obese mice was mixed with acetyl-CoA and NADPH (0.2 M […] phosphate buffer [pH 7.0] containing 0.4 mM EDTA), and the mixture was placed in a spectrophotometer cuvette and maintained at 30° C. 20 μl of malonyl-CoA solution (0.2 mM) was added to start an enzyme reaction and decrease of OD was measured at a chart speed 2 cm/min. Based on the results, the enzyme activity of FAS was evaluated using the molar extinction coefficient of […] NADPH as 6220.
(§2) First, the FAS activity of 3T3-L1 cells treated for 6 days in the presence or absence of rAIM (5 μg/ml), and in the presence of C75 (25 μM) was measured. Moreover, the FAS activity of adipose tissues of AIM^+/+ mice and AIM^−/− mice and the FAS activity of adipose tissue of AIM^−/− mice administered with rAIM or BSA 3 hr before by intraadipose topical injection are shown in FIGS. 28 and 29, respectively.
(§3) All mice were fed with HFD for 20 weeks. The samples were dissolved (lysed) and the FAS activity was measured. The data was converted to that based on FAS protein, according to the results of WB performed using the same sample.

Assay [2] has as its target T1, FAS. Description: FAS activity of adipose tissue of AIM-/- mice after intraadipose topical injection. It counts as in vivo. The arrangement: endogenous in cells; host or cells: 3T3-L1 adipocytes (treated cells, then lysed). The settings on record: AIM-/- mice fed HFD 20 weeks, rAIM injected into adipose 3 hr before, versus BSA. On the procedure:
as §1, §2, §3

Assay [3] has as its system differentiated 3T3-L1 cells. Description: Lipid droplet fusion in differentiated 3T3-L1 cells, oil-red-O. In kind it is cell-based, mouse. Particulars: rAIM 5 μg/ml. On the procedure: The differentiated 3T3-L1 cells were loaded with rAIM (5 μg/ml) according to the schedule shown in FIG. 13, E. The oil-red-0 staining was performed before and after rAIM loading.
The relative size of lipid droplet (Relative droplet size) was determined from an average diameter of 50 lipid droplets. […] The number of cells containing lipid droplets per unit area was measured in 5 different fields and the average was determined.

Assay [4] deals with FAS. Description: Co-immunoprecipitation of AIM-HA and FLAG-FAS or FAS domains in HEK 293T cells. Particulars: Flag-labeled FAS domains in HEK293T cells stably expressing AIM-HA. In kind it is binding. From the text:
In HEK 293T cells, rAIM labeled with HA-tag and FAS labeled with FLAG-tag were co-expressed, and the binding of AIM and FAS was confirmed by co-immunoprecipitation using an anti-Flag antibody or anti-HA antibody.
Then, the AIM binding region in FAS was examined. FAS contains 8 domains of keto acyl synthase (KS), malonyl/acetyl transferase (MAT), dehydrase (DH), central core (CC), enoylreductase (ER), keto reductase (KR), acylcarrier protein (ACP) and thioesterase (TE).
The N-terminal of each domain of FAS was labeled with Flag sequence, and expressed in HEK293T cells where AIM-HA is stably expressed. The binding of AIM-HA and each domain of FAS was confirmed by co-immunoprecipitation using an anti-Flag antibody or anti-HA antibody.
The sequence encoding full-length FAS cDNA (nucleotide: +1-7515) labeled with FLAG-tag was constructed using a part of the cDNA clone provided by Dr. Ohara (Kazusa DNA Research Institute) and some fragments cloned by RT-PCR and pFLAG-CMV2 vector (Sigma).
A cDNA fragment encoding KS, MAT, DH, CC, ER, KR, ACP or TE was prepared by subcloning to pFLAG-CMV2 vector by using full-length FAS cDNA as a template.

A further assay relates to AIM-/- mice. Nature of the assay: Body weight and fat amount of HFD-fed AIM-/- mice. It counts as in vivo. The settings on record: AIM-/- mice on HFD, intraperitoneal 300 μg/injection/mouse twice a week, 5 weeks, versus BSA. On the procedure:
Then, rAIM was intraperitoneally administered twice a week (n=6; 300 μg/injection/mouse) to AIM^−/− mice for 5 weeks while feeding with HFD, and the body weight and adipose tissue amount were measured.

T1 sequence (P19096 whole entry): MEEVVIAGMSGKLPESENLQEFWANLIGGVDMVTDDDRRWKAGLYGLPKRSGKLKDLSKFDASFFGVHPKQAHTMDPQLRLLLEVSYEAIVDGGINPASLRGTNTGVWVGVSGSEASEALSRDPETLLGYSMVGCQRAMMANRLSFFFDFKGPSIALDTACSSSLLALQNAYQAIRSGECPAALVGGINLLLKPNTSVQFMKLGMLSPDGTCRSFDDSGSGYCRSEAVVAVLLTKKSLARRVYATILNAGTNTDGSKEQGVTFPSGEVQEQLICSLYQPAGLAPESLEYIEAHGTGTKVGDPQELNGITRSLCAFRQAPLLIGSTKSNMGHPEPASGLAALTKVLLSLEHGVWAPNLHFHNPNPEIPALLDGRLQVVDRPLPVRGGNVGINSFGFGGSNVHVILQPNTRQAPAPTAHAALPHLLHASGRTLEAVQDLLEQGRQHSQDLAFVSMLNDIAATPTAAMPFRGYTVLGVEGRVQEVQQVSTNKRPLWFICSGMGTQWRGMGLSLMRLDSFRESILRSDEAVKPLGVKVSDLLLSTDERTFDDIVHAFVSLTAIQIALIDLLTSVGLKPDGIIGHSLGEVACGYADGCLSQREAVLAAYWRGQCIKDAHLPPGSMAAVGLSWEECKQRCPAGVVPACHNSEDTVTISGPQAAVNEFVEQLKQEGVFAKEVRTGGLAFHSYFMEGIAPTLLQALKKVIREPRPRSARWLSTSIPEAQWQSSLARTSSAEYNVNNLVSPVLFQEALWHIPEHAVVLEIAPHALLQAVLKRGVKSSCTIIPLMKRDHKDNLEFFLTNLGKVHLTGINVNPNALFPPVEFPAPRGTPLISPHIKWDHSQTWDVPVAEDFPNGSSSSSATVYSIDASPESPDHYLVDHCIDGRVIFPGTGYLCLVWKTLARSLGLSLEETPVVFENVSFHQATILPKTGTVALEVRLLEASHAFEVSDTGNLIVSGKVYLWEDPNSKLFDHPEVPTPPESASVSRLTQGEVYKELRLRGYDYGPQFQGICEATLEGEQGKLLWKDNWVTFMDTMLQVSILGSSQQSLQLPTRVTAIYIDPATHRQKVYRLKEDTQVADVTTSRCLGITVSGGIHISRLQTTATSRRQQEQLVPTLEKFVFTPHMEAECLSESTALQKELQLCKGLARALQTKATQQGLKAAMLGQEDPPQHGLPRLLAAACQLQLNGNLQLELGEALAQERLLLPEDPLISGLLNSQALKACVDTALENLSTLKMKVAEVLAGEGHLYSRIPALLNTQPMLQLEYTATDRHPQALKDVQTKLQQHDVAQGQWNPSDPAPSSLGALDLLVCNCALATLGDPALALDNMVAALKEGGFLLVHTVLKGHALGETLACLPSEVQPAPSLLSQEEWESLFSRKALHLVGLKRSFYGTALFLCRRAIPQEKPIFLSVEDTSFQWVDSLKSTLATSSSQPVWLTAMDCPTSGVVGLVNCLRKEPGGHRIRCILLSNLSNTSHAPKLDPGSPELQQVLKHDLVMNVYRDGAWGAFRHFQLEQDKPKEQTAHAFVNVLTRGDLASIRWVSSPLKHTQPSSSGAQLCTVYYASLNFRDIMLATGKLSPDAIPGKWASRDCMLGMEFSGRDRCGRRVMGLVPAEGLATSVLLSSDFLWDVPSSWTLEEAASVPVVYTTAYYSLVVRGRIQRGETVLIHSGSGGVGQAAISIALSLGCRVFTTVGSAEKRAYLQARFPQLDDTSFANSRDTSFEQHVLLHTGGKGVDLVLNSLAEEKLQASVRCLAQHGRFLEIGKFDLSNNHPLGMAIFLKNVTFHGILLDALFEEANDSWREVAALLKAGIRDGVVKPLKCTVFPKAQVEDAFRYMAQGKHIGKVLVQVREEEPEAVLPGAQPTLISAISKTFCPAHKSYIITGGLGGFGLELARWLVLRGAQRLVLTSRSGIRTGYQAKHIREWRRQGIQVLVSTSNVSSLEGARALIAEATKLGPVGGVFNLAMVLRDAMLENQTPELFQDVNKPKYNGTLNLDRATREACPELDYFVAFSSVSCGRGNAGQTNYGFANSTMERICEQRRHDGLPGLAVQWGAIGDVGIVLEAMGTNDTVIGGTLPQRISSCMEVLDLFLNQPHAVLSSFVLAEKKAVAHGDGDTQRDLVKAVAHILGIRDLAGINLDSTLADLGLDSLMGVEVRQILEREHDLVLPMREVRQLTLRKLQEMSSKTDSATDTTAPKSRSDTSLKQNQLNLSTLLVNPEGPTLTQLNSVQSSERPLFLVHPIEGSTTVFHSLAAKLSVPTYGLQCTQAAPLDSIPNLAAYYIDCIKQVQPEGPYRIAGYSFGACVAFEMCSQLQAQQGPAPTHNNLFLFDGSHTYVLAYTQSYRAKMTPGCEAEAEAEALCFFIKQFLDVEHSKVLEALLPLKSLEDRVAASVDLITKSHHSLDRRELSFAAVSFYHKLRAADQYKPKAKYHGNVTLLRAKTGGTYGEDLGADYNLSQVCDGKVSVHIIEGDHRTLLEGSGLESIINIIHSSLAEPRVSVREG

B1: rAIM: recombinant AIM protein (rAIM) of mouse, HA-tagged, prepared in HEK293T cells (protein)
chain: ESPTKVQLVGGAHRCEGRVEVEHNGQWGTVCDDGWDRRDVAVVCRELNCGAVIQTPRGASYQPPASEQRVLIQGVDCNGTEDTLAQCELNYYVFDCSHEEDAGAQCENPDSDLLFIPEDVRLVDGPGHCQGRVEVLHQSQWSTVCKAGWNLQVSKVVCRQLGCGRALLTYGSCNKNTQGKGPIWMGKMSCSGQEANLRSCLLSRLENNCTHGEDTWMECEDPFELKLVGGDTPCSGRLEVLHKGSWGSVCDDNWGEKEDQVVCKQLGCGKSLHPSPKTRKIYGPGAGRIWLDDVNCSGKEQSLEFCRHRLWGYHDCTHKEDVEVICTDFDV
modifications: left off: small tags and cut ends
notes: recombinant AIM protein (rAIM) of mouse, HA-tagged, prepared in HEK293T cells
With B1, the “intracellular localization of incorporated rAIM (endosome, lysosome staining)” value with 3T3-L1 cells (3T3-L1 adipocytes, rAIM 3 hr, confocal microscope) was “co-localized with endosome”. Further, the rAIM uptake efficiency result with 3T3-L1 cells (cells showing low expression of PPARγ2, rAIM 5 μg/ml, 3 hr) is given as “markedly low”. The “rAIM uptake (cells containing rAIM per 100 cells)” value with 3T3-L1 cells (mature adipocytes highly expressing PPARγ2, rAIM 5 μg/ml, 3 hr) was “efficient rAIM uptake”. For the same molecule, in the assay with 3T3-L1 cells (preadipocytes free of differentiation induction stimulation, rAIM 5 μg/ml, 3 hr), the rAIM uptake entry is reported as “no rAIM uptake”. Further, the FAS activity entry with FAS [1] is reported as “markedly suppressed”. The “FAS activity in adipose tissue” value with FAS [2] is “decreased”. Besides, in assay [3] (6 days), the “number of lipid droplet-containing cells per unit area” value is “significantly decreased” and the “relative size of lipid droplets” value is given as “significantly decreased”. Further, the “lipid droplet in the cell (oil-red-O)” value in assay [3] (6 days of culture) is listed as “markedly decreased”. Moreover, the “FAS domains bound to AIM” value in the assay on FAS [4] is “ER, DH, TE and CC”. Further, in the assay on AIM-/- mice, the “increase in body weight” value was “significantly small increase”, the “increase in subcutaneous fat” value is on record as “significantly small increase” and the “increase in visceral fat” value was “significantly small increase”.

Source of the values: patent US20130115220A1, “METHOD FOR PREVENTION OR TREATMENT OF METABOLIC SYNDROME” (DAINIPPON SUMITOMO PHARMA CO., LTD., priority 2010, published 2013).
